Tests used:
[1] = target: T1, Sre1 bHLH DNA-binding domain (UniProt A0A5B8KSW3 349-477); assay: EMSA; 1.7 nM protein, 0.5 nM probe; no shift; 50 mM Hepes-KOH pH 7.5, 100 mM KCl, 5 mM MgCl2, 1 mM DTT, 20% glycerol, 0.8 mg/ml BSA, 0.3 mg/ml poly(dI-dC), 22°C 30 min; gel 0.5x TBE 4°C; conditions: protein: recombinant; tags: His-tag (pET-TEV, TEV site); chain copies: 2; blunt
T1 sequence: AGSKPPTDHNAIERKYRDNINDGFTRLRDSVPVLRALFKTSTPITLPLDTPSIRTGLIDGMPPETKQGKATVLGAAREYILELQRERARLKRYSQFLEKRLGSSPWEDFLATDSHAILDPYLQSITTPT

[2] = target: T1, Sre1 bHLH DNA-binding domain; assay: EMSA; 1.7 nM protein, 0.5 nM probe; single (fast) shifted band; 50 mM Hepes-KOH pH 7.5, 100 mM KCl, 5 mM MgCl2, 1 mM DTT, 20% glycerol, 0.8 mg/ml BSA, 0.3 mg/ml poly(dI-dC), 22°C 30 min; gel 0.5x TBE 4°C; conditions: protein: recombinant; tags: His-tag (pET-TEV, TEV site); chain copies: 2; label: 3' biotin; blunt
[3] = target: T1, Sre1 bHLH DNA-binding domain; assay: EMSA; 1.7 nM protein, 0.5 nM probe; two shifted bands; 50 mM Hepes-KOH pH 7.5, 100 mM KCl, 5 mM MgCl2, 1 mM DTT, 20% glycerol, 0.8 mg/ml BSA, 0.3 mg/ml poly(dI-dC), 22°C 30 min; gel 0.5x TBE 4°C; conditions: protein: recombinant; tags: His-tag (pET-TEV, TEV site); chain copies: 2; blunt

B1: probe D (SRE1*+SRE2*) (dsDNA)
DNA 1: CCATCGTCACTCTTTATTCTTTTTCCGTTGGGGCTATAATTCATTTTACGTGACTCCACT
DNA 2: AGTGGAGTCACGTAAAATGAATTATAGCCCCAACGGAAAAAGAATAAAGAGTGACGATGG
B1: no binding [1].

B2: SRE1+SRE2* (probe C, by order) (dsDNA)
DNA 1: CCATCGTCACTCTCGTCTCCTGACCCGTTGGGGCTATAATTCATTTTACGTGACTCCACT
DNA 2: AGTGGAGTCACGTAAAATGAATTATAGCCCCAACGGGTCAGGAGACGAGAGTGACGATGG
B2: binds [2].

B3: probe A (HMGS SRE1+SRE2) (dsDNA)
DNA 1: CCATCGTCACTCTCGTCTCCTGACCCGTTGGGGCTATGTAACACCACACGTGACTCCACT
DNA 2: AGTGGAGTCACGTGTGGTGTTACATAGCCCCAACGGGTCAGGAGACGAGAGTGACGATGG
B3: binds [3].

B4: SRE1*+SRE2 (probe B, by order) (dsDNA)
DNA 1: CCATCGTCACTCTTTATTCTTTTTCCGTTGGGGCTATGTAACACCACACGTGACTCCACT
DNA 2: AGTGGAGTCACGTGTGGTGTTACATAGCCCCAACGGAAAAAGAATAAAGAGTGACGATGG
B4: binds [2].
